# Results published in article PMC3937768 (Cell metabolism, 2014).
# Target: the molecule itself
# Assay: non-reducing SDS-PAGE with immunoblot
protein,measurement,value
"Recombinant AMPKα2 (enzyme, rat, UniProt Q09137 1-552, looked up) MAEKQKHDGRVKIGHYVLGDTLGVGTFGKVKIGEHQLTGHKVAVKILNRQKIRSLDVVGKIKREIQNLKLFRHPHIIKLYQVISTPTDFFMVMEYVSGGELFDYICKHGRVEEVEARRLFQQILSAVDYCHRHMVVHRDLKPENVLLDAQMNAKIADFGLSNMMSDGEFLRTSCGSPNYAAPEVISGRLYAGPEVDIWSCGVILYALLCGTLPFDDEHVPTLFKKIRGGVFYIPEYLNRSIATLLMHMLQVDPLKRATIKDIREHEWFKQDLPSYLFPEDPSYDANVIDDEAVKEVCEKFECTESEVMNSLYSGDPQDQLAVAYHLIIDNRRIMNQASEFYLASSPPTGSFMDDMAMHIPPGLKPHPERMPPLIADSPKARCPLDALNTTKPKSLAVKKAKWHLGIRSQSKPYDIMAEVYRAMKQLDFEWKVVNAYHLRVRRKNPVTGNYVKMSLQLYLVDNRSYLLDFKSIDDEVVEQRSGSSTPQRSCSAAGLHRPRSSVDSSTAENHSLSGSLTGSLTGSTLSSASPRLGSHTMDFFEMCASLITALAR",binding result,binds
